# Results: patent US20220380455A1
# B1: 6A-20 (antibody, V domains shown)
# VH: EVQLQQSGPELVKPGASVKMSCKASGYTFTDYFMKWVKQSHGKSLEWIGDINPKNGDTFYNQKFKGKATLTVDKSSSTAYMQLNSLTSEDSAVYYCARPGYFDVWGAGTTVTVSS
# VL: DIVMTQAAPSVPVTPGESVSISCRSSKSLLHSDGNTYLYWFLQRPGQSPQLLIYRMSNLAPGVPDRFSGSGSGTAFTLRISRVEAEDVGVYYCMQHLEFPFIFGAGTKLELK
# Legend:
# [1] = molecular target: cynomolgus (cyno) MS4A6A (cynomolgus); assay: flow cytometry, hybridoma supernatant, HEK293 transfected with cyno MS4A6A over parental HEK293; Screen 1
# [2] = molecular target: cynomolgus (cyno) MS4A6A (cynomolgus); assay: flow cytometry, hybridoma supernatant, HEK293 transfected with cyno MS4A6A over parental HEK293; Screen 2
# Sequence of cynomolgus (cyno) MS4A6A (cynomolgus) (Q9H2W1 other isoform, or with tags, fused parts or gaps): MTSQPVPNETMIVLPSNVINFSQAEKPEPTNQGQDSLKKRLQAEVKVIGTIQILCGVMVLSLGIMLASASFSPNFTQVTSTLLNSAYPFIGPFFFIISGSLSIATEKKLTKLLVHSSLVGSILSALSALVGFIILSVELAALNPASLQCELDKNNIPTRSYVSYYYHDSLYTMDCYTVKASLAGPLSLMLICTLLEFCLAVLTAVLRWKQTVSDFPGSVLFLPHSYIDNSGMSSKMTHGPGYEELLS
binder,measurement,setting,value
B1,ratio of APC MFI on MS4A6A+/HEK parental cells,[1],2.7
same,ratio of APC MFI on MS4A6A+/HEK parental cells,[2],0.2
